Measurements: article doi:10.64898/2025.12.01.691523

Biological target: Anopheles culicifacies ferritin heavy chain homolog (AcFtnHCH), recombinant, refolded (Anopheles culicifacies)
Experiment: native gel or EMSA

Substance: Anopheles culicifacies ferritin heavy chain homolog (AcFtnHCH), recombinant, refolded (natural protein)
- stoichiometry N: 24
